Tests used:
Details in all cases: chain copies: 5 (pentamer, stated)
[1] = molecular target: T1, C-reactive protein (CRP, pentamer) (Homo sapiens, UniProt P02741 P02741:19-224); test: SPR; amine-anchored extended aptamer; 10 mM TrisAc, 10 mM MgAc, 2 mM CaCl2, 1 mM EDTA; faster kinetics than aptamer 2
T1 sequence: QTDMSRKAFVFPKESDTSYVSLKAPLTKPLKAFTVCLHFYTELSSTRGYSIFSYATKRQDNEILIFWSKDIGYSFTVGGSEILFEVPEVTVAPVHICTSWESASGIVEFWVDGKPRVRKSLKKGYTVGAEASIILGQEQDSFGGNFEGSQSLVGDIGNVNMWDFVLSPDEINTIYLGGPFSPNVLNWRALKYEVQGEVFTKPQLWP
Description: (§1) Aptamer-protein binding studies were carried out via an ESPRIT SPR instrument from Metrohm Autolab B.V (Utrecht, The Netherlands). For this, the end-modified aptamers attached with an amine group were anchored onto the gold SPR surface functionalized with a self-assembled monolayer (SAM) of C11PEG6COOH via EDC (1-ethyl-3-(3-dimethylaminopropyl) carbodiimide) NHS (N-hydroxysuccinimide) coupling chemistry. The gold SPR surface from XanTec bioanalytics was cleaned by sonication twice in acetone for 10 minutes and then immersed in an ethanolic 1 mM SAM solution containing 5% acetic acid and allowed to stand at room temperature for 48 hours. Following the incubation, the surface was rinsed with 100% ethanol, quickly dried with nitrogen and was mounted on the SPR system. To attach the DNA aptamers to the gold surface, the COOH-terminated SAM surface was activated with 50 mM EDC and 200 mM NHS in 100 mM MES buffer at pH5.5 for around 15 min. The surface was washed with the MES buffer, followed by a 30-minute incubation with 5 μM of DNA aptamer in 10 mM sodium acetate buffer at pH5.5. Any remaining activated COOH sites were quenched by exposing the surface to 100 mM ethanolamine in water for around 10 min. […] The binding was measured as the change in resonance angle.

[2] = molecular target: T1, C-reactive protein (CRP, pentamer); test: SPR; amine-anchored extended aptamer; slower kinetics than aptamer 1; similar carrier sensing results (p217)
Description: as §1

[3] = molecular target: T1, C-reactive protein (CRP, pentamer); test: nanopipette translocation; carrier 9 nM, CRP 90 nM; no single peaks
Description: For the translocation experiments the nanopipettes with the working electrode were filled with the translocation buffer (0.1 M KCl with 10 mM TrisAc, 10 mM MgAc, 2 mM CaCl₂) and 1 mM EDTA) containing the DNA origami and analyte where applicable at a final concentration of 500 pM. The Mg is required to maintain the stability of the DNA origami, and the Ca to match the buffer conditions used to select the DNA aptamers employed as binding moieties. The grounded counter electrode was immersed in a 0.1 M KCl solution completing the circuit. […] Measurements were recorded using the Axopatch 700b amplifier, and the data were acquired at a rate of 100 kHz and 20 kHz low pass filtered. […]
To investigate the specificity of our sensing system, and in particular of the carriers to the CRP target, a random DNA sequence was selected to act as a non-specific aptamer and the translocation ion current was measured for carrier concentration of 9 nM and CRP concentration of 90 nM, i.e. the highest concentration reported in FIG. 6. A single distribution of peak amplitudes and dwell times with averages of 69±5 pA and […], respectively, were found, consistent with the values measured with unoccupied carriers.

B1: hCRP aptamer 1 (ssDNA)
DNA: AAGCCTTTATTTCAACGGCAGGAAGACAAACACGATGGGGGGGTATGATTTGATGTGGTTGTTGCATGATCGTGGTCTGTGGTGCTGT
modifications: 5'-NH2
binding result [1]: binds

B2: hCRP aptamer 2 (ssDNA)
DNA: CGAAGGGGATTCGAGGGGTGATTGCGTGCTCCATTTGGTGTTTTTTTTTTTTGCAAGGATAAAAATTT
modifications: 3'-NH2
binding result [2]: binds

B3: Nonspecific random aptamer (ssDNA)
DNA: CTGAACAAGAAAAATAGCAGAACTTACGAGCCAGGGGAAACAGTAAGGCCTAATTAGGTAAAGGAGTAAGTGCTCGAACGCTTCAGA
modifications: 5'-NH2
binding result [3]: no binding

Reference: patent US20230115785, “ANALYTE DETECTION” (University of Leeds, published 2023)
